Target: human constitutively active c-Src, adenovirus-expressed (human) (UniProt P12931)
Test: co-IP

B1: phospho-mimetic S116D eNOS mutant, adenovirus-expressed (enzyme)
chain: MGNLKSVGQEPGPPCGLGLGLGLGLCGKQGPASPAPEPSRAPAPATPHAPDHSPAPNSPTLTRPPEGPKFPRVKNWELGSITYDTLCAQSQQDGPCTPRCCLGSLVLPRKLQTRPDPGPPPAEQLLSQARDFINQYYSSIKRSGSQAHEERLQEVEAEVASTGTYHLRESELVFGAKQAWRNAPRCVGRIQWGKLQVFDARDCSSAQEMFTYICNHIKYATNRGNLRSAITVFPQRAPGRGDFRIWNSQLVRYAGYRQQDGSVRGDPANVEITELCIQHGWTPGNGRFDVLPLLLQAPDEAPELFVLPPELVLEVPLEHPTLEWFAALGLRWYALPAVSNMLLEIGGLEFSAAPFSGWYMSTEIGTRNLCDPHRYNILEDVAVCMDLDTRTTSSLWKDKAAVEINLAVLHSFQLAKVTIVDHHAATVSFMKHLDNEQKARGGCPADWAWIVPPISGSLTPVFHQEMVNYILSPAFRYQPDPWKGSATKGAGITRKKTFKEVANAVKISASLMGTLMAKRVKATILYASETGRAQSYAQQLGRLFRKAFDPRVLCMDEYDVVSLEHEALVLVVTSTFGNGDPPENGESFAAALMEMSGPYNSSPRPEQHKSYKIRFNSVSCSDPLVSSWRRKRKESSNTDSAGALGTLRFCVFGLGSRAYPHFCAFARAVDTRLEELGGERLLQLGQGDELCGQEEAFRGWAKAAFQASCETFCVGEEAKAAAQDIFSPKRSWKRQRYRLSTQAEGLQLLPGLIHVHRRKMFQATVLSVENLQSSKSTRATILVRLDTAGQEGLQYQPGDHIGICPPNRPGLVEALLSRVEDPPPPTESVAVEQLEKGSPGGPPPSWVRDPRLPPCTLRQALTFFLDITSPPSPRLLRLLSTLAEEPSEQQELETLSQDPRRYEEWKWFRCPTLLEVLEQFPSVALPAPLLLTQLPLLQPRYYSVSSAPNAHPGEVHLTVAVLAYRTQDGLGPLHYGVCSTWLSQLKTGDPVPCFIRGAPSFRLPPDPYVPCILVGPGTGIAPFRGFWQERLHDIESKGLQPAPMTLVFGCRCSQLDHLYRDEVQDAQERGVFGRVLTAFSREPDSPKTYVQDILRTELAAEVHRVLCLERGHMFVCGDVTMATSVLQTVQRILATEGDMELDEAGDVIGVLRDQQRYHEDIFGLTLRTQEVTSRIRTQSFSLQERHLRGAVPWAFDPPGPDTPGP
percent reduction of co-immunoprecipitation against WT eNOS: 88%

Reference: paper PMC3824616
